Measurements from patent US20110178027A1 (SOCIETE DE COMMERCIALISATION DES PRODUITS DE LA RECHERCHE …, published 2011).
“And” between values parts separate entries of the source, which are not always exact repeats. Equal entries are not always repeated. Values belong to the binder of their own block, whether it stands above or below them. No end group written: not given here.

How the values were obtained:
[1] = target: T1, PC4 (UniProt Q6UW60 114-708, limits assumed); experiment: enzyme inhibition assay, fluorogenic substrate PyrRTKR-MCA
T1 sequence (looked up): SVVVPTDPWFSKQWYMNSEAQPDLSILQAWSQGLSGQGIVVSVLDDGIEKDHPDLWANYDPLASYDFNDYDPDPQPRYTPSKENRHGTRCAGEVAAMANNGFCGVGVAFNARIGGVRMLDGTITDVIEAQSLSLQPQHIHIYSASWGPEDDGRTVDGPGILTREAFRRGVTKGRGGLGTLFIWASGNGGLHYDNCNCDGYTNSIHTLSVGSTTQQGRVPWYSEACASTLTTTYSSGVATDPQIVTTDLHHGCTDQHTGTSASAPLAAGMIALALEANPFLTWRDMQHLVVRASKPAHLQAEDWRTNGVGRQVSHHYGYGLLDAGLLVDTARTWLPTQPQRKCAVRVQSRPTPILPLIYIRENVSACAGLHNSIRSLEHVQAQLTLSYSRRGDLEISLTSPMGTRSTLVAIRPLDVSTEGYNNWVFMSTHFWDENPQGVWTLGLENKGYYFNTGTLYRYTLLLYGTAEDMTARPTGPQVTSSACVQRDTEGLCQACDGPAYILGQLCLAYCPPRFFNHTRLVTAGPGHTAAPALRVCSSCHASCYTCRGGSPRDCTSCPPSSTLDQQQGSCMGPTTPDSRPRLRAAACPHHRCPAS
Procedure: (§1) Enzyme inhibition assays for furin (FIG. 5D) were performed in 100 mM Hepes pH 7.5, 1 mM CaCl₂, 1 mM β-mercaptoethanol, 0.5 μg/μL BSA. Assays for PC2 (FIG. 5E) were performed in 20 mM Bis-Tris pH 5.7, 1 mM CaCl₂, 0.1% Brij-30. Assays for PC1/3, PC4, PACE4, PC5/6 and PC7 (FIGS. 5F, G, A, B and C respectively) were performed in 20 mM Bis-T is pH 6.5, 1 mM CaCl₂. […] Inhibitory peptides were added to the enzymes at decreasing concentrations from 100 μM to 50 nM and incubated 5 minutes prior to the addition of substrate. […] Each Kᵢ value is the mean of 2 to 10 independent experiments.

[2] = target: T2, PACE4 (UniProt P29122 150-969, limits assumed); experiment: enzyme inhibition assay, ratio of Ki values against the other PCs
T2 sequence (looked up): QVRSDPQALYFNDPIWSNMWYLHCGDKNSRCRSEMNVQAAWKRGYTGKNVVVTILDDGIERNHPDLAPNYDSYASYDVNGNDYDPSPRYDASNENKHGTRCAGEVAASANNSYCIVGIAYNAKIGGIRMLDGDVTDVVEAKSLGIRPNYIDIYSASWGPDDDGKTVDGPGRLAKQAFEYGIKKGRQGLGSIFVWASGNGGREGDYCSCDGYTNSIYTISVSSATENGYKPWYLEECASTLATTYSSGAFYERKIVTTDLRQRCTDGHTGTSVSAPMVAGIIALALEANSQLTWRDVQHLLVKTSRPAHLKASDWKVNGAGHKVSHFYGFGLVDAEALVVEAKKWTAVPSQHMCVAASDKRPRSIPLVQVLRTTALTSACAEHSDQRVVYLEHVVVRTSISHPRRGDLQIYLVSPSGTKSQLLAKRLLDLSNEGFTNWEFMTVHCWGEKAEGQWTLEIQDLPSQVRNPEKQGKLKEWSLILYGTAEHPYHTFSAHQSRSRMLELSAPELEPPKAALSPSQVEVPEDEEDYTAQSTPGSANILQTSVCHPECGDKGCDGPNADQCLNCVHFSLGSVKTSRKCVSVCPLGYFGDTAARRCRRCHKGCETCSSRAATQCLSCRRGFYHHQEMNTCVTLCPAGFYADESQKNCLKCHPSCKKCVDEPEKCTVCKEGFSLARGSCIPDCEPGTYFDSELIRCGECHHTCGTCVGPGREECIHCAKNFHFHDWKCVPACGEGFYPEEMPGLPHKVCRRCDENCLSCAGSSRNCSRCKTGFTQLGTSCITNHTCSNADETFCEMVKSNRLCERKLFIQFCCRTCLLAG
Procedure: as §1

[3] = target: furin (UniProt P09958 108-715, limits assumed); experiment: enzyme inhibition assay, fluorogenic substrate PyrRTKR-MCA
Procedure: as §1

[4] = target: T3, PC5/6 (UniProt Q92824-2 115-913, limits assumed); experiment: as above
T3 sequence (looked up): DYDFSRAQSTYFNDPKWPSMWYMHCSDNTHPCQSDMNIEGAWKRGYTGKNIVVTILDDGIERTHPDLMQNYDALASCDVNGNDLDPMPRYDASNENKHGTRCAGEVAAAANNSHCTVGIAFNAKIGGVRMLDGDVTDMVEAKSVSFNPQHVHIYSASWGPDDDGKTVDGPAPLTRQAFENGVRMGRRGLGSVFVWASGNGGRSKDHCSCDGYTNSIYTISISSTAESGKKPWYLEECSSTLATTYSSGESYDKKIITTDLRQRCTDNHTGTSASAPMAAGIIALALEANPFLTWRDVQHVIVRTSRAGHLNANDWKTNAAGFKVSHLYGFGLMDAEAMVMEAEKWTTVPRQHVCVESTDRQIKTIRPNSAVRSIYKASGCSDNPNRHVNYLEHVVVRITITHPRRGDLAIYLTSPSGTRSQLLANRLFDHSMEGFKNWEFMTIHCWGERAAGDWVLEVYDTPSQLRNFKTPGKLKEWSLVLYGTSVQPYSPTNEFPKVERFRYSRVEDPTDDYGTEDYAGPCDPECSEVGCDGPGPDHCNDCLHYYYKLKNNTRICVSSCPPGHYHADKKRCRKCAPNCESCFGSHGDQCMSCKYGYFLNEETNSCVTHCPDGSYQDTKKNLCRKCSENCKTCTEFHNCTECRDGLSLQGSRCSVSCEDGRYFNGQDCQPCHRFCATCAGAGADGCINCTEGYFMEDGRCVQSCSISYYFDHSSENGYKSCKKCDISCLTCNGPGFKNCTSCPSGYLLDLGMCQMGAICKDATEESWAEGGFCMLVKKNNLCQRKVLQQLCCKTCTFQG
Procedure: as §1

[5] = target: T4, PC1/3 (UniProt P29120 111-753, limits assumed); experiment: as above
T4 sequence (looked up): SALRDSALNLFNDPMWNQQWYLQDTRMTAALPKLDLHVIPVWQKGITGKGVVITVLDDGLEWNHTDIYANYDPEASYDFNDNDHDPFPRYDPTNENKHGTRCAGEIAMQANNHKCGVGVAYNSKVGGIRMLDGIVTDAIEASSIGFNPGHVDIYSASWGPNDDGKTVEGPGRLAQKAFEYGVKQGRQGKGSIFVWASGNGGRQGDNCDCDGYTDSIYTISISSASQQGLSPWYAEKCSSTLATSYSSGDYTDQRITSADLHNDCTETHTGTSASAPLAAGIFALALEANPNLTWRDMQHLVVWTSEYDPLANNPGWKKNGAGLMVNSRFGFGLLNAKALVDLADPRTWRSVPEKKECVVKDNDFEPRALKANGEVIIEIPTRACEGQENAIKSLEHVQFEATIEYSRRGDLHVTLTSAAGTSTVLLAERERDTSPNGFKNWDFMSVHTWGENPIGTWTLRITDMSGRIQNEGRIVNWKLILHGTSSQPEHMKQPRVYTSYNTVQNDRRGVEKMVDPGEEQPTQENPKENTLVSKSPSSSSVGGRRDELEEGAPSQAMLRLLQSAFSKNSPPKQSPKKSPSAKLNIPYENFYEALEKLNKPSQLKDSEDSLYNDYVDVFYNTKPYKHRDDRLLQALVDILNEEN
Procedure: as §1

[6] = target: T5, PC2 (UniProt P16519 110-638, limits assumed); experiment: as above
T5 sequence (looked up): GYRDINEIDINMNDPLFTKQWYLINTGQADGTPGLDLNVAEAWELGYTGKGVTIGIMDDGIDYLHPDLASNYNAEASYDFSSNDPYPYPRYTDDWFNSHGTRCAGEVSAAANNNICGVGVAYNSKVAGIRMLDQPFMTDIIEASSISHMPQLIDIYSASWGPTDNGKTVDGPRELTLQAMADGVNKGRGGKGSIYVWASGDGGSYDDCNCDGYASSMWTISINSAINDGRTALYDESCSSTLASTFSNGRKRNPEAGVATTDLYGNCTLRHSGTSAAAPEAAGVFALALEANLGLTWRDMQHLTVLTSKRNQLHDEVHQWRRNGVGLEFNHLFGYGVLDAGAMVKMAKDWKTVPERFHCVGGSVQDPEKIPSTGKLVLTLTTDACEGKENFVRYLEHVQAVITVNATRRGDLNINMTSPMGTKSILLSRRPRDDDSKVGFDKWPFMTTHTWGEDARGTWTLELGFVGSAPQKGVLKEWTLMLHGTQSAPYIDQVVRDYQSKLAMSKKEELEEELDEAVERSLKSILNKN
Procedure: as §1

[7] = target: T2, PACE4; experiment: as above
Procedure: as §1

[8] = target: T6, PC7 (UniProt Q16549 142-667, limits assumed); experiment: as above
T6 sequence (looked up): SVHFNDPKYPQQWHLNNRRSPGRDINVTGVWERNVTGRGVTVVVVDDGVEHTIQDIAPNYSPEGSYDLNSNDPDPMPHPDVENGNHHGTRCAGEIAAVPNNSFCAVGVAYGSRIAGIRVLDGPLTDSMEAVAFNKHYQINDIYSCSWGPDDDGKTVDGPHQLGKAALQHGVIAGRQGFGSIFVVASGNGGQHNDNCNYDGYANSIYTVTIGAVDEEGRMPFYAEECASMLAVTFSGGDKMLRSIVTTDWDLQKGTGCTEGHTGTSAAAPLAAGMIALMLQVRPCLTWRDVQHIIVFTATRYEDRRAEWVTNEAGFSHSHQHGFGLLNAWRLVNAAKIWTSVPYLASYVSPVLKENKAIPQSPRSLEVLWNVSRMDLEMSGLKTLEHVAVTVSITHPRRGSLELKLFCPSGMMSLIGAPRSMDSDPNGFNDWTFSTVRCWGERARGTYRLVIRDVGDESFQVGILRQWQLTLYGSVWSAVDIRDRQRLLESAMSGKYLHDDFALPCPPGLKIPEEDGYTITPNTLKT
Procedure: as §1

furin, sequence (P09958 108-715 limits assumed): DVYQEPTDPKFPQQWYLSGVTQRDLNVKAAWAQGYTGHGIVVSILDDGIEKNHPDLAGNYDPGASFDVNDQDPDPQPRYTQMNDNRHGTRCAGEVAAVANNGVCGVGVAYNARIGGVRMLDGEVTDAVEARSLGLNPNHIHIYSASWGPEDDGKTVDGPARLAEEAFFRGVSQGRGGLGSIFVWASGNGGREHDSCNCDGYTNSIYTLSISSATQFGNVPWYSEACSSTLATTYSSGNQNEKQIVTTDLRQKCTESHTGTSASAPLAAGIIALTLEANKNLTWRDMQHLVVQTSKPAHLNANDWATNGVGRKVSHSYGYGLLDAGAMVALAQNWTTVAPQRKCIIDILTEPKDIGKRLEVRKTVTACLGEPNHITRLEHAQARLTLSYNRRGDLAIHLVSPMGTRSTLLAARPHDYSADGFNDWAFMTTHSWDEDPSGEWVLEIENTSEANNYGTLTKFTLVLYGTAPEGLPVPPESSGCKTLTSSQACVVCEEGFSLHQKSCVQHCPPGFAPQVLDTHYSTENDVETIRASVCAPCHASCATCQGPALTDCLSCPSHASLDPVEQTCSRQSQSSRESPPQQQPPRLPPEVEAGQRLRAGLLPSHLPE

Ki [1]: 0.164 µM
B1: LLLLLRVKR-NH2 (peptide)
peptide: LLLLLRVKR-NH2
notes: also called 5 Leu; multi-leucine peptide containing five leucines

fold more effective on PACE4 than the other PCs [2]: ≥ 9 fold | Ki [3]: 0.114 µM | Ki [4]: 0.245 µM | Ki [5]: 0.454 µM | Ki [1]: 0.205 µM | Ki [6]: 18.8 µM | Ki [7]: 0.006 µM and 0.0055 µM and 0.005 µM | Ki [8]: 0.054 µM and 0.05 µM
Binder: LLLLRVKR-NH2 (also called 4 Leu; Multi-Leu (ML)) [LLLLRVKR-NH2]
